Results as given in publication PMC6091153.
“And” between values parts separate entries of the source, which are not always exact repeats. Equal values may be shown once.

Target: Saccharomyces cerevisiae glutaredoxin Grx6 (recombinant, without the signal peptide) (S. cerevisiae) (UniProt Q12438)
Assay: SEC; gel filtration of freshly purified recombinant protein on a Superdex 75 column, elution followed at 280 nm and 430 nm; the dimer peak is brown (Fe-S centre); FeSO4·7H2O and (NH4)2Fe(SO4)2·6H2O added in one run (more dimer and tetramer)

stoichiometry N: 4 and 2
Substance: Saccharomyces cerevisiae glutaredoxin Grx6 (recombinant, without the signal peptide) (from UniProt Q12438 30-231) (natural protein)
